Test results as given in publication PMC8844825 (iScience, 2022).

T1: myc-WT CARD11-FLAGx2 (murine, UniProt Q8CIS0 1-1159)
T1 sequence (looked up): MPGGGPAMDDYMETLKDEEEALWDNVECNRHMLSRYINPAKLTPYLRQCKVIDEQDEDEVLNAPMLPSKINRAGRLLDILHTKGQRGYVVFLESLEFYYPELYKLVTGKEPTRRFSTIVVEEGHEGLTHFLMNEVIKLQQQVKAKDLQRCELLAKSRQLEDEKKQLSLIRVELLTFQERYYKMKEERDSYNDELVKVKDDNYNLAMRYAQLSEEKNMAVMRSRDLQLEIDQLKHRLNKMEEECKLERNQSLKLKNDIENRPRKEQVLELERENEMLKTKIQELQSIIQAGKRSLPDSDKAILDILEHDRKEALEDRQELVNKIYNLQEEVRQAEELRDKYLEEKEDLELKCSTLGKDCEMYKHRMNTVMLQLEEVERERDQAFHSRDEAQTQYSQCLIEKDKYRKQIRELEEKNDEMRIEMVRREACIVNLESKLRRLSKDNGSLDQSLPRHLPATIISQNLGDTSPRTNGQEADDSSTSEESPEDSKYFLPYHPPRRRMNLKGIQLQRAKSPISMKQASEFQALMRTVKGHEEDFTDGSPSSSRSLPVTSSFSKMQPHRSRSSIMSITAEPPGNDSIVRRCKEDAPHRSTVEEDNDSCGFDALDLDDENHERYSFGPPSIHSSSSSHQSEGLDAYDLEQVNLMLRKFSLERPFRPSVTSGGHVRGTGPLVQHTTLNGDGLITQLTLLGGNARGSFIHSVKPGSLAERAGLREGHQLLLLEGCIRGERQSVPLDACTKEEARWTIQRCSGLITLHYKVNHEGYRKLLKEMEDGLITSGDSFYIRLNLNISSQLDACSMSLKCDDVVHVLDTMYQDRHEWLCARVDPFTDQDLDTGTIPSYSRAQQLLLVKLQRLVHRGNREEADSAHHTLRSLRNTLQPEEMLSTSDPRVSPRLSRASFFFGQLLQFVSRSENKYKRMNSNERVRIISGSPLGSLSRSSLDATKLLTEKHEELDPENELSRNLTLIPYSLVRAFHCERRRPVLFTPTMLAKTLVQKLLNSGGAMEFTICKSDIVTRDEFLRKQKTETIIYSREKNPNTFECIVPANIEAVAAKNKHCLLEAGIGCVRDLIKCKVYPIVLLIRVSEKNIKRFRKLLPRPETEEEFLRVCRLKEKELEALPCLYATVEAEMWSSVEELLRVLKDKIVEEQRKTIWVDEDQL


Biological target: T1, myc-WT CARD11-FLAGx2
Experiment: co-IP

| relative inducible binding (bound/input, normalised to WT) | Binder |
| --- | --- |
| 1 relative to WT | Bcl10 (endogenous, Jurkat T cells) (natural protein, human (endogenous in Jurkat), UniProt O95999 1-233, looked up) MEPTAPSLTEEDLTEVKKDALENLRVYLCEKIIAERHFDHLRAKKILSREDTEEISCRTSSRKRAGKLLDYLQENPKGLDTLVESIRREKTQNFLIQKITDEVLKLRNIKLEHLKGLKCSSCEPFPDGATNNLSRSNSDESNFSEKLRASTVMYHPEGESSTTPFFSTNSSLNLPVLEVGRTENTIFSSTTLPRPGDPGAPPLPPDLQLEEEGTCANSSEMFLPLRSRTVSRQ |
| 1 relative to WT | HOIP (endogenous, Jurkat T cells) (natural protein, human (endogenous in Jurkat), UniProt Q96EP0 1-1072, looked up) MPGEEEERAFLVAREELASALRRDSGQAFSLEQLRPLLASSLPLAARYLQLDAARLVRCNAHGEPRNYLNTLSTALNILEKYGRNLLSPQRPRYWRGVKFNNPVFRSTVDAVQGGRDVLRLYGYTEEQPDGLSFPEGQEEPDEHQVATVTLEVLLLRTELSLLLQNTHPRQQALEQLLEDKVEDDMLQLSEFDPLLREIAPGPLTTPSVPGSTPGPCFLCGSAPGTLHCPSCKQALCPACDHLFHGHPSRAHHLRQTLPGVLQGTHLSPSLPASAQPRPQSTSLLALGDSSLSSPNPASAHLPWHCAACAMLNEPWAVLCVACDRPRGCKGLGLGTEGPQGTGGLEPDLARGRWACQSCTFENEAAAVLCSICERPRLAQPPSLVVDSRDAGICLQPLQQGDALLASAQSQVWYCIHCTFCNSSPGWVCVMCNRTSSPIPAQHAPRPYASSLEKGPPKPGPPRRLSAPLPSSCGDPEKQRQDKMREEGLQLVSMIREGEAAGACPEEIFSALQYSGTEVPLQWLRSELPYVLEMVAELAGQQDPGLGAFSCQEARRAWLDRHGNLDEAVEECVRTRRRKVQELQSLGFGPEEGSLQALFQHGGDVSRALTELQRQRLEPFRQRLWDSGPEPTPSWDGPDKQSLVRRLLAVYALPSWGRAELALSLLQETPRNYELGDVVEAVRHSQDRAFLRRLLAQECAVCGWALPHNRMQALTSCECTICPDCFRQHFTIALKEKHITDMVCPACGRPDLTDDTQLLSYFSTLDIQLRESLEPDAYALFHKKLTEGVLMRDPKFLWCAQCSFGFIYEREQLEATCPQCHQTFCVRCKRQWEEQHRGRSCEDFQNWKRMNDPEYQAQGLAMYLQENGIDCPKCKFSYALARGGCMHFHCTQCRHQFCSGCYNAFYAKNKCPEPNCRVKKSLHGHHPRDCLFYLRDWTALRLQKLLQDNNVMFNTEPPAGARAVPGGGCRVIEQKEVPNGLRDEACGKETPAGYAGLCQAHYKEYLVSLINAHSLDPATLYEVEELETATERYLHVRPQPLAGEDPPAYQARLLQKLTEEVPLGQSIPRRRK |
